Measurements: patent US20240343811A1 (SHANDONG SIMCERE BIOPHARMACUTICAL, published 2024)

What was measured:
[1] = molecular target: T1, human CD16a (158F), full length, on FlpinCHO cells (human, UniProt P08637 17-254); assay: FACS on FlpinCHO cells
Description: (§1) The required cells were scale-up cultured in a T-75 cell culture flask to the logarithmic growth phase. The medium was aspirated, and the cells were washed twice with a PBS buffer and then digested with trypsin. After the digestion was terminated, the cells were washed twice with the PBS buffer. The cells were counted, and then the cell pellet was resuspended with a [PBS+2% (w/w) BSA] blocking solution to 2×10⁶ cells/ml, and added to a 96-well FACS reaction plate at 50 μl/well. […] 50 μl/well of the antibody to be detected was added at different concentrations, and incubated on ice for 1 hour. […] The mixture was centrifuged and washed 5 times with PBS, and FACS (FACS Canto II, purchased from BD Company) was used for detection and result analysis. Data analysis was performed by software (CellQuest) to obtain the mean fluorescence intensity (MFI) of the cells. Then, software (GraphPad Prism8) was used for analysis, data fitting and EC50 value calculation.

[2] = molecular target: T2, human CD16a (158V), full length, on cells (human, UniProt P08637 17-254); assay: FACS on FlpinCHO cells
T2 construct: also used as target for the bought Jurkat-NFAT reporter line stably expressing human CD16a (158V); also called FlpinCHO-human CD16a (158V); FlpinCHO-CD16a (158V)
Description: as §1

[3] = molecular target: T3, human CD16b (NA1), full length, on FlpinCHO cells (human, UniProt O75015 17-200); assay: FACS on FlpinCHO cells
T3 construct: also called FlpinCHO-human CD16b (NA1)
T3 chain: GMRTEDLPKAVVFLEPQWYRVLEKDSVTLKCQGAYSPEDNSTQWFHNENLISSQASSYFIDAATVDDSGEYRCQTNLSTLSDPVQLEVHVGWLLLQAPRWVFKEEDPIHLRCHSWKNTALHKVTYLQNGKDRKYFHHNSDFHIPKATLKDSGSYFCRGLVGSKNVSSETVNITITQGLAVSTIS
Description: as §1
(§2) The binding of an antibody to be detected to FlpinCHO-human CD16b cells was detected according to the method of Example 3.1.

[4] = molecular target: T4, human CD16b (NA2), full length, on FlpinCHO cells (human, UniProt O75015 17-200); assay: FACS on FlpinCHO cells
T4 construct: also called FlpinCHO-human CD16b (NA2)
T4 chain: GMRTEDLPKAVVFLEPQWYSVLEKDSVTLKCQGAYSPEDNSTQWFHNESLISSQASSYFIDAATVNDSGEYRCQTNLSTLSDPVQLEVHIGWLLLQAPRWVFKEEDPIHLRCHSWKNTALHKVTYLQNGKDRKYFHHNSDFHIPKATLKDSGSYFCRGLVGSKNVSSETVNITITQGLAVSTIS
Description: as §1, §2

[5] = molecular target: T5, CD16 on primary human NK cells (human, UniProt P08637 17-254); assay: FACS on human NK cells
T5 construct: whole, on cells; also called resting NK cells
Description: as §1
The binding of an antibody to be detected to freshly prepared human NK cells (Milestone Biotechnologies, catalog number: PB56-N-Custom) was detected according to the method of Example 3.1.

[6] = molecular target: T2, human CD16a (158V), full length, on …; assay: cell-based or functional assay
[7] = molecular target: T1, human CD16a (158F), full length, on …; assay: FACS, biotinylated antibody
Description: as §1, with “The” for “The required cells were scale-up cultured in a T-75 cell culture flask to the logarithmic growth phase. The”
(§3) An antibody to be detected was labeled in advance according to the instructions of a biotin labeling kit (EZ-Link™ NHS-PEG4 Biotinylation Kit, purchased from Thermofisher Scientific, catalog number: 21455). […] Detection was performed according to the method of Example 3.1, wherein the biotinylated antibody was detected with fluorescein APC-labeled Streptavidin (High Concentration) (purchased from Biolegend, catalog number: 405243).

[8] = molecular target: T2, human CD16a (158V), full length, on …; assay: FACS, biotinylated antibody
Description: as §1, with “The” for “The required cells were scale-up cultured in a T-75 cell culture flask to the logarithmic growth phase. The”
as §3

Human CD16a (158F)-his = molecular target: T6, Human CD16a (158F)-his (human); assay: SPR (Biacore), antibody captured on Protein A
T6 construct: entry holds ECD, AVI tag, linker and His tag
Description: (§4) A sample buffer and a running buffer were HBS-EP+ (10 mM HEPES, 150 mM NaCl, 3 mM EDTA and 0.05% surfactant P20) (GE Healthcare; BR-1006-69). The flow-through cell was set to 25° C. The sample block was set to 16° C. Both were pretreated with the running buffer. In each cycle, an antibody to be detected was first captured with a Protein A chip, and then a single concentration of CD16 antigen protein was injected. The binding and dissociation processes of the antibody and the antigen protein were recorded, and finally Glycine pH 1.5 (GE Healthcare; BR-1003-54) was used to complete chip regeneration. Binding was measured by injecting different concentrations of recombinant human CD16-ECD his proteins in a solution for 240 s with a flow rate of 30 μL/min, wherein a total of 5 concentrations were prepared by using 200 nM as a starting concentration (see the detailed results for the actual concentration in the test) and performing a 1:1 dilution. The dissociation phase was monitored for up to 600 s and was triggered by switching from a sample solution to a running buffer. The surface was regenerated by washing with a 10 mM glycine solution (pH 1.5) for 30 s at a flow rate of 30 μL/min. Bulk refractive index difference was corrected by subtracting the response obtained from the goat anti-human Fc surface. Blank injection was also subtracted (=double reference). For calculation of apparent KD and other kinetic parameters, Langmuir 1:1 model was used.

Human CD16a (158V)-his = molecular target: T7, Human CD16a (158V)-his (human); assay: SPR (Biacore), antibody captured on Protein A
T7 construct: entry holds ECD, AVI tag, linker and His tag
Description: as §4

[9] = molecular target: T1, human CD16a (158F), full length, on …; assay: FACS, biotinylated antibody, +10 mg/mL human immunoglobulin
Description: as §1, with “The” for “The required cells were scale-up cultured in a T-75 cell culture flask to the logarithmic growth phase. The”
as §3

[10] = molecular target: T2, human CD16a (158V), full length, on …; assay: as above
Description: as §1, with “The” for “The required cells were scale-up cultured in a T-75 cell culture flask to the logarithmic growth phase. The”
as §3

Binder	EC50 [1]	Maximum mean fluorescence intensity [1]	EC50 [2]	Maximum mean fluorescence intensity [2]	EC50 [3]	Maximum mean fluorescence intensity [3]	Maximum mean fluorescence intensity [4]	binding result [4]	EC50, activation activity for Jurkat cell [6]	Maximum fluorescence value [6]	EC50 [7]	Maximum mean fluorescence intensity [7]	EC50 [8]	Maximum mean fluorescence intensity [8]	Kd (Human CD16a (158F)-his)	koff (Human CD16a (158F)-his)	kon (Human CD16a (158F)-his)	Kd (Human CD16a (158V)-his)	koff (Human CD16a (158V)-his)	kon (Human CD16a (158V)-his)	further results
VHH07 VHH-Fc antibody (Fc fusion) EVQLVESGGGLVQAGGSLRLSCVASRSTLTTYAVRWYRQAPGKQREWVAFISVDGKTNYPDSVKGRFIVSRDNAKNTVYLQMNSLKPEDTADYICRAGGQYWGQGTQVTVSSEPKSSDKTHTCPPCPAPEFEGGPSVFLFPPKPKDTLMISRTPEVTCVVVAVSHEDPEVKFNWYVDGVEVHNAKTKPREEQYNSTYRVVSVLTVLHQDWLNGKEYKCKVSNKALPAPIEKTISKAKGQPREPQVYTLPPSREEMTKNQVSLTCLVKGFYPSDIAVEWESNGQPENNYKTTPPVLDSDGSFFLYSKLTVDKSRWQQGNVFSCSVMHEALHNHYTQKSLSLSPGK	0.25 nM	5190	0.32 nM	5970	0.35 nM	52900	113	no binding (tested: 100 nM)	0.02 nM	174000	0.24 nM	4160	0.22 nM	5970	67.2 nM	0.00451 s⁻¹	67200 M⁻¹ s⁻¹	22.7 nM	0.00249 s⁻¹	110000 M⁻¹ s⁻¹	EC50 [5]: 0.22 nM; Maximum mean fluorescence intensity [5]: 2330; EC50 [9]: 0.87 nM; Maximum mean fluorescence intensity [9]: 5520; EC50 [10]: 0.85 nM; Maximum mean fluorescence intensity [10]: 7900
VHH09 VHH-Fc antibody (Fc fusion) EVQVVESGGGLVQAGGSLRLSCVASTSTLTTYAVRWYRQAPGKQREWVAFISVDGNTNYPDSVKGRFIVSRDNAKNTVYLQMNSLKPEDTADYICRAGGQYWGQGTQVTVSSEPKSSDKTHTCPPCPAPEFEGGPSVFLFPPKPKDTLMISRTPEVTCVVVAVSHEDPEVKFNWYVDGVEVHNAKTKPREEQYNSTYRVVSVLTVLHQDWLNGKEYKCKVSNKALPAPIEKTISKAKGQPREPQVYTLPPSREEMTKNQVSLTCLVKGFYPSDIAVEWESNGQPENNYKTTPPVLDSDGSFFLYSKLTVDKSRWQQGNVFSCSVMHEALHNHYTQKSLSLSPGK	0.47 nM	5550	0.69 nM	6240	0.3 nM	48200	143	no binding (tested: 100 nM)	0.03 nM	159000	0.39 nM	5140	0.64 nM	7640	50.2 nM	0.00309 s⁻¹	61600 M⁻¹ s⁻¹	16.1 nM	0.00178 s⁻¹	110000 M⁻¹ s⁻¹	EC50 [5]: 0.76 nM; Maximum mean fluorescence intensity [5]: 2420; EC50 [9]: 1.35 nM; Maximum mean fluorescence intensity [9]: 6500; EC50 [10]: 1.74 nM; Maximum mean fluorescence intensity [10]: 9480
VHH08 VHH-Fc antibody (Fc fusion) EVQVVESGGGLVQAGGSLRLSCVASRSTLSTYAVRWYRQAPGNQREWVAFISVDGNTNYPDSVKGRFIVSRDNAKNTVYLQMNSLKPEDTADYICRAGGQYWGQGTQVTVSSEPKSSDKTHTCPPCPAPEFEGGPSVFLFPPKPKDTLMISRTPEVTCVVVAVSHEDPEVKFNWYVDGVEVHNAKTKPREEQYNSTYRVVSVLTVLHQDWLNGKEYKCKVSNKALPAPIEKTISKAKGQPREPQVYTLPPSREEMTKNQVSLTCLVKGFYPSDIAVEWESNGQPENNYKTTPPVLDSDGSFFLYSKLTVDKSRWQQGNVFSCSVMHEALHNHYTQKSLSLSPGK	0.56 nM	4240	0.81 nM	4710	0.18 nM	38600	149	no binding (tested: 100 nM)	0.02 nM	178000	0.85 nM	3940	0.71 nM	5660	80.5 nM	0.00559 s⁻¹	69500 M⁻¹ s⁻¹	22.1 nM	0.00266 s⁻¹	120000 M⁻¹ s⁻¹	EC50 [9]: 1.08 nM; Maximum mean fluorescence intensity [9]: 6060; EC50 [10]: 1.24 nM; Maximum mean fluorescence intensity [10]: 8840
